Consider two molecules from publication PMC6486636, “LARP4A recognizes polyA RNA via a novel binding mechanism mediated by disordered regions and involving the PAM2w motif, revealing interplay between PABP, LARP4A and mRNA”.

Data set [1] has as its target LARP4A 1-79 (Homo sapiens, UniProt Q71RC2 1-79). In words: EMSA; up to 200 uM protein; EMSA: 20 mM Tris pH 7.25, 200 mM KCl, 5% glycerol, 1 mM DTT, 0.1 mg/ml BSA, 0.01 mg/ml E. coli tRNA, on ice, gel at 4 C; MST: 20 mM Tris pH 7.25, 100 mM KCl, 0.2 mM EDTA, 1 mM DTT, 0.05% Tween-20, 25 C. The conditions noted are these: protein: recombinant; tags: His-SUMO, cleaved; label: 5' 32P (EMSA); unlabelled (NMR, native MS); single strand. A general note: In EMSA bound probe runs differently from free probe, usually more slowly.

The target in data set [2] is T1, LARP4A 1-50 (Homo sapiens, UniProt Q71RC2 1-50).
T1 chain: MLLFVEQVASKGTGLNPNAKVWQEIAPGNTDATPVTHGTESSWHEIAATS
The data set is described as above. The note with it: protein: recombinant; tags: His-SUMO, cleaved; label: 5' 32P (EMSA); unlabelled (NMR, native MS); single strand.

Data set [3] concerns the target T2, LARP4A NTR (Homo sapiens, UniProt Q71RC2 1-111). The experiment in a line: EMSA; with competitor tRNA; retains majority of affinity; Kd only in figure; EMSA: 20 mM Tris pH 7.25, 200 mM KCl, 5% glycerol, 1 mM DTT, 0.1 mg/ml BSA, 0.01 mg/ml E. coli tRNA, on ice, gel at 4 C; MST: 20 mM Tris pH 7.25, 100 mM KCl, 0.2 mM EDTA, 1 mM DTT, 0.05% Tween-20, 25 C. The note with it: protein: recombinant; tags: His (TEV) or His-SUMO, cleaved; label: 5' 32P (EMSA); unlabelled (NMR, native MS); single strand.

Data set [4] deals with T3, LARP4A NTD (Homo sapiens, UniProt Q71RC2 1-287). In words: EMSA; with competitor tRNA; low micromolar Kd, >100-fold tighter than La module; value only in figure; EMSA: 20 mM Tris pH 7.25, 200 mM KCl, 5% glycerol, 1 mM DTT, 0.1 mg/ml BSA, 0.01 mg/ml E. coli tRNA, on ice, gel at 4 C; MST: 20 mM Tris pH 7.25, 100 mM KCl, 0.2 mM EDTA, 1 mM DTT, 0.05% Tween-20, 25 C. The note with it: protein: recombinant; tags: His tag (TEV) or His-SUMO, cleaved; label: 5' 32P (EMSA); unlabelled (NMR, native MS); single strand.

In data set [5] the target is LARP4A La module (Homo sapiens, UniProt Q71RC2 111-287). The experiment in a line: NMR; small shifts, almost exclusively RRM1; 100 mM KCl; EMSA: 20 mM Tris pH 7.25, 200 mM KCl, 5% glycerol, 1 mM DTT, 0.1 mg/ml BSA, 0.01 mg/ml E. coli tRNA, on ice, gel at 4 C; MST: 20 mM Tris pH 7.25, 100 mM KCl, 0.2 mM EDTA, 1 mM DTT, 0.05% Tween-20, 25 C. The note with it: protein: recombinant; tags: His tag, TEV-cleaved; label: 5' 32P (EMSA); unlabelled (NMR, native MS); single strand.
LARP4A La module, sequence (Q71RC2 111-287): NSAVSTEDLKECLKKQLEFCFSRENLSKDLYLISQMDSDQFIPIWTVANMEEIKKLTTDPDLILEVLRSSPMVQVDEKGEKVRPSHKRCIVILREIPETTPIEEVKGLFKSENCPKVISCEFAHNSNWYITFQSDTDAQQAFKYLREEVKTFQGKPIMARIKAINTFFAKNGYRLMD

Data set [6] deals with T3, LARP4A NTD. In words: MST; 25 C; agrees with EMSA; Kd only in figure; EMSA: 20 mM Tris pH 7.25, 200 mM KCl, 5% glycerol, 1 mM DTT, 0.1 mg/ml BSA, 0.01 mg/ml E. coli tRNA, on ice, gel at 4 C; MST: 20 mM Tris pH 7.25, 100 mM KCl, 0.2 mM EDTA, 1 mM DTT, 0.05% Tween-20, 25 C. The note with it: protein: recombinant; tags: His tag (TEV) or His-SUMO, cleaved; label: 5' fluorescein (FAM); single strand.

Data set [7] has as its target T2, LARP4A NTR. The description is as above. The note with it: protein: recombinant; tags: His (TEV) or His-SUMO, cleaved; label: 5' fluorescein (FAM); single strand.

For the molecule AAAAAAAAAAAAAAA (ssRNA) [oligoA15], the binding result in data set [1] was “no binding”; in data set [2] it was “no binding”; in data set [3], “binds”; in data set [4], “binds”; in data set [5], “binds”.

Take AAAAAAAAAAAAAAAAAAAA (ssRNA) [5'FAM-oligoA20]: the binding result in data set [6] and in data set [7] was “binds” each time.
